Laboratory results from IntAct's records for PubMed 19561611.

B1: Hedgehog-interacting protein (Homo sapiens), Q96QV1-1 (parent)
chain: MLKMLSFKLLLLAVALGFFEGDAKFGERNEGSGARRRRCLNGNPPKRLKRRDRRMMSQLELLSGGEMLCGGFYPRLSCCLRSDSPGLGRLENKIFSVTNNTECGKLLEEIKCALCSPHSQSLFHSPEREVLERDLVLPLLCKDYCKEFFYTCRGHIPGFLQTTADEFCFYYARKDGGLCFPDFPRKQVRGPASNYLDQMEEYDKVEEISRKHKHNCFCIQEVVSGLRQPVGALHSGDGSQRLFILEKEGYVKILTPEGEIFKEPYLDIHKLVQSGIKGGDERGLLSLAFHPNYKKNGKLYVSYTTNQERWAIGPHDHILRVVEYTVSRKNPHQVDLRTARVFLEVAELHRKHLGGQLLFGPDGFLYIILGDGMITLDDMEEMDGLSDFTGSVLRLDVDTDMCNVPYSIPRSNPHFNSTNQPPEVFAHGLHDPGRCAVDRHPTDININLTILCSDSNGKNRSSARILQIIKGKDYESEPSLLEFKPFSNGPLVGGFVYRGCQSERLYGSYVFGDRNGNFLTLQQSPVTKQWQEKPLCLGTSGSCRGYFSGHILGFGEDELGEVYILSSSKSMTQTHNGKLYKIVDPKRPLMPEECRATVQPAQTLTSECSRLCRNGYCTPTGKCCCSPGWEGDFCRTAKCEPACRHGGVCVRPNKCLCKKGYLGPQCEQVDRNIRRVTRAGILDQIIDMTSYLLDLTSYIV

Variants of: B1
Details: with shh_mouse Shh

| Variant | effect of a mutation on the interaction |
| --- | --- |
| D383A | disrupting interaction strength |
| D383R | disrupting interaction strength |
